Target: T1, FHHDbf2-H6Mob1TM9 (Saccharomyces cerevisiae, UniProt P22204+P40484)
T1 construct: made in house; host or cells: Hi5 insect cells (baculovirus)
T1 sequence (P22204 1-572): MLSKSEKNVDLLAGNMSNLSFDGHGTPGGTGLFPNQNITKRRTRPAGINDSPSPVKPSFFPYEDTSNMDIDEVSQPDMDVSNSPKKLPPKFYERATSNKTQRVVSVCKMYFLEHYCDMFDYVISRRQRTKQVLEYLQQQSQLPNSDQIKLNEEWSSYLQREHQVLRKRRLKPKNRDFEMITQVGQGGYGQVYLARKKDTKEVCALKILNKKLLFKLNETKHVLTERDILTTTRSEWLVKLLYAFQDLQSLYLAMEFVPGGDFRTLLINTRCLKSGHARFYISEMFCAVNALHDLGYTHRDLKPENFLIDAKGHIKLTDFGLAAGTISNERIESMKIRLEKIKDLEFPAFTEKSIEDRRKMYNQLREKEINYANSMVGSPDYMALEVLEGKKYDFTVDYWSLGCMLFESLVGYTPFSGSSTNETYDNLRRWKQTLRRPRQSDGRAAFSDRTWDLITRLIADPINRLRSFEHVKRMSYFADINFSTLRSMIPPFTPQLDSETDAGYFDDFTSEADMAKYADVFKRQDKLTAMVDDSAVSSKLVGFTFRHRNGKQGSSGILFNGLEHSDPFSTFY
T1 sequence (P40484 1-314 partner): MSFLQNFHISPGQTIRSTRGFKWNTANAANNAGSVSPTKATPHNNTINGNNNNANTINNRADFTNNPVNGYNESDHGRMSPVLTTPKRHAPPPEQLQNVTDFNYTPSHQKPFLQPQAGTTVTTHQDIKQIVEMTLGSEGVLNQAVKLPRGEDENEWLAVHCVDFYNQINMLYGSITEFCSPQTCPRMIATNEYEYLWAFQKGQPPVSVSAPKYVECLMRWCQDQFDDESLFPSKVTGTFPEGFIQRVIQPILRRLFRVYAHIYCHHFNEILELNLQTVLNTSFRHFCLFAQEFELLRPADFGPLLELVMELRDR
Experiment: Yeast proteome chip assay
Assay type: biochemical
Details: Table 3; GST fusion proteins on proteome chip, [γ-33P]ATP, chips in duplicate, computer analysis
Experimental: The relatively low sequence complexity of the Dbf2 phosphorylation motif diminished the power of using genome-wide bioinformatics screens to identify putative substrates. Accordingly, we carried out a proteome array screen to identify putative yeast substrates. […] After taking into account the proteins phosphorylated in the negative controls, 67 proteins were determined to be putative Dbf2-Mob1 substrates (Table 3).
Yeast proteome microarrays were prepared as previously described. Overexpressed GST-tagged yeast proteins were purified from ~4,400 yeast strains and spotted on slides. To determine the optimal amount of kinase to use for probing proteome chips, we performed trial assays as described (J. Ptacek et al., submitted). […] The full proteome array was probed with 4 μl ^FHHDbf2-^H6Mob1^TM9 in 200 μl of DKB supplemented with [γ-^33P]ATP. As a control, ^FHHDbf2(N305A)-^H6Mob1^TM9 was used to probe the proteome array. […] To control for autophosphorylated proteins, the proteome array was probed with 200 μl of DKB supplemented with [γ-^33P]ATP. Proteome chips were assayed in duplicate in each case. Data analysis was performed as described (J. Ptacek et al., submitted). Briefly, signals were analyzed by a computer algorithm designed to normalize background and identify signals as positive if 3 of 4 spots (each protein is spotted twice on each slide and each kinase or control was tested on 2 slides) were 2 standard deviations above background and the fourth spot was 1.5 standard deviations above background.

B1: YDL070W: GST fusion yeast protein on proteome chip (protein, UniProt Q07442 1-638, looked up)
Bromodomain-containing factor …: MSRTNMDTRHAHSALLAAPQSATANSRSSNSSSESSSNKNNINVGVGDDSGNVSAVSIDDGPHFRDIFHYGHEENYKLASSGITNLNSSSHAHQTLSPISISNASTPESFPEHPLGLERETEPALEAEMEAEELPPHQSKYLLSSIKATKRLKDARPFLKPVDPIALNIPHYFNYVQTPMDLSLIETKLQGNVYHSVEQVTSDFKTMVDNCLNFNGPESSISSMAKRIQKYFEKKLSAMPPRVLPASALKKTSRNRKKNEDMDSPLVIRRSVSTTNDNIGESGNREGVSGGRPKRTIHPPKSKDLFDIYENSKPKSKTLQKKFRTCLKILKVLMSKKNSDINFPFLQPVDPIALNLPNYFDVVKNPMDLGTISNNLMNWKYKTIDQFVDDLNLVFYNCFQFNPEGNEVHSMGKKLKELFNFHWLENQDILNEIETDSDLEEDNYSSSYSSDDEYDDEDINENDITNPAIQYLEQKLKKMEVELQQLKRQELSKLSKERKRKHLGKTLLRRKAMKHSVDDLKKSITDKINELSDLEMNGMIRIIKNSLPADEILTSNEDEIEIDLDILDEATIARIYERYFEKKNNNNSKRKLSGNYSTAPTNKKKKTLKFLEKDEIINNNNYSDSEEDSSDSSDSDSD
modifications: GST fusion
notes: GST fusion yeast protein on proteome chip
With B1 the “Slide Signal (after normalization)” value was 0.6162.

B2: YMR072W: GST fusion yeast protein on proteome chip (protein, UniProt Q02486 27-183, looked up)
ARS-binding factor 2, …: KASKRTQLRNELIKQGPKRPTSAYFLYLQDHRSQFVKENPTLRPAEISKIAGEKWQNLEADIKEKYISERKKLYSEYQKAKKEFDEKLPPKKPAGPFIKYANEVRSQVFAQHPDKSQLDLMKIIGDKWQSLDQSIKDKYIQEYKKAIQEYNARYPLN
modifications: GST tag
notes: as for B1
With B2 the “Slide Signal (after normalization)” value was 0.7585.

B3: YCR105W: GST fusion yeast protein on proteome chip (protein, UniProt P25377 1-361, looked up)
NADP-dependent alcohol …: MLYPEKFQGIGISNAKDWKHPKLVSFDPKPFGDHDVDVEIEACGICGSDFHIAVGNWGPVPENQILGHEIIGRVVKVGSKCHTGVKIGDRVGVGAQALACFECERCKSDNEQYCTNDHVLTMWTPYKDGYISQGGFASHVRLHEHFAIQIPENIPSPLAAPLLCGGITVFSPLLRNGCGPGKRVGIVGIGGIGHMGILLAKAMGAEVYAFSRGHSKREDSMKLGADHYIAMLEDKGWTEQYSNALDLLVVCSSSLSKVNFDSIVKIMKIGGSIVSIAAPEVNEKLVLKPLGLMGVSISSSAIGSRKEIEQLLKLVSEKNVKIWVEKLPISEEGVSHAFTRMESGDVKYRFTLVDYDKKFHK
modifications: GST fusion
notes: as for B1
In the case of B3, the “Slide Signal (after normalization)” value is reported as 0.6146.

B4: YDL002C: GST fusion yeast protein on proteome chip (protein, UniProt Q03435 2-203, looked up)
Non-histone protein 10: SVEEKKRRLEELKDQNVVLGLAIQRSRLSVKRLKLEYGVLLERLESRIELDPELNCEDPLPTLASFKQELLTKPFRKSKTKRHKVKERDPNMPKRPTNAYLLYCEMNKERIRQNGSLDVTRDLAEGWKNLNEQDRKPYYKLYSEDRERYQMEMEIYNKKISNIDADDDKEENEQKIKNNEEGSSTKVADSKGGEDGSLVSSN
modifications: GST fusion
notes: as for B1
With B4 the “Slide Signal (after normalization)” value was 0.8102.

B5: YKL140W: GST fusion yeast protein on proteome chip (protein, UniProt P34163 1-548, looked up)
Sterol esterase TGL1: MYFPFLGRLSITDYIIVVLVYIESIISSVLKLIPQPMINLFEWLINFSTSSDDNTIEEKLRSAPTIHEMCAIFDISVEDHLVRTEDNYILTLHRIPPISKNRFNNKVVYLHHGLLMCSDVWCCNIERHKNLPFVLHDLGYDVWMGNNRGNKYSTAHLNKPPKSNKFWDFSIDEFAFFDIPNSIEFILDITKVDKVICIGFSQGSAQMFAAFSLSEKLNRKVSHFIAIAPAMTPKGLHNRIVDTLAKSSPGFMYLFFGRKIVLPSAVIWQRTLHPTLFNLCIDIANKILFNWKSFNILPRQKIASYAKLYSTTSVKSIVHWFQILRSQKFQMFEESDNMLNSLTRPYQIANFPTRTNIKIPILLIYGGIDSLVDIDVMKKNLPFNSVFDVKVDNYEHLDLIWGKDADTLVIAKVLRFIEFFNPGNVSVKTNQLLPSASLVEELPSTTWKTTHPTHGLSYRTHSADRSPLSVQADEADEVHNADNSRFLRRVFSTSAIDEDNENEHQDDTEDQIHKEQQRRLSAYLESSKDLRQLDANSSTTALDALNKE
modifications: GST tag
notes: as for B1
In the case of B5, the “Slide Signal (after normalization)” value is reported as 0.6321.

Source: publication PMC1277818, “Substrate specificity analysis of protein kinase complex Dbf2-Mob1 by peptide library and proteome array screening” (BMC Biochemistry, 2005)
